Here are results for 3 molecules from patent US20150329638A1 (Biogen, published 2015).

For test [1], the target named is T1, human DR6 (Death Receptor-6, TNFRSF21) (human, UniProt O75509 42-655).
T1 sequence: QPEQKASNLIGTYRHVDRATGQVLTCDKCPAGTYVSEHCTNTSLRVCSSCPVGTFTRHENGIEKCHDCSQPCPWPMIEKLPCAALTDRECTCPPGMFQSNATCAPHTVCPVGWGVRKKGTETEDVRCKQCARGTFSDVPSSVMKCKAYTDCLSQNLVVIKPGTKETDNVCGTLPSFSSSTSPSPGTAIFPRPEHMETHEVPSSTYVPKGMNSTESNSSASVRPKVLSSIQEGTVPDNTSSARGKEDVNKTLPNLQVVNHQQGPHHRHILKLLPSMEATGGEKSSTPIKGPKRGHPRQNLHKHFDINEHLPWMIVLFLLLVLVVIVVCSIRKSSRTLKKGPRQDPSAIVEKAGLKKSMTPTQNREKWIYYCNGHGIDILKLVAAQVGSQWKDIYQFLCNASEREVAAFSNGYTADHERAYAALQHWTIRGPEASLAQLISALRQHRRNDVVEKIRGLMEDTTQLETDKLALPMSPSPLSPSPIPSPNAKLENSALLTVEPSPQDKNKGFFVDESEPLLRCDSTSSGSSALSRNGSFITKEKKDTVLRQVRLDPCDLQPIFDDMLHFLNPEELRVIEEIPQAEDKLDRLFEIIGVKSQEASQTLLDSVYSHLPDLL
As to the kind of experiment: FACS direct binding on transiently transfected HEK293 cells. As to the method: (§1) The apparent Kd of 5D10 and M53-E04 for rat and human DR6 was estimated using transiently transfected HEK293 cells in a FACS direct binding assay. Approximately 50,000 cells in 150 uL of PBS, 1% BSA, 0.1% NaN3 (FACS buffer) were analyzed. Cells were pelleted and resuspended in 150 uL of serial dilutions of the antibodies in FACS buffer. Samples were incubated for 1 hr on ice with occasional agitation and then washed 3 times. Bound antibodies were visualized with PE-labeled goat F(ab)2 anti-human or anti-mouse Fab specific antibody (Jackson Labs).
(§2) The binding affinities of 5D10 or M53-E04 to cyno monkey DR6 were similar to human DR6. A single point mutation (Y93A) was introduced to 5D10 based on the co-crystal structure of DR6-5D10 (FIG. 6).

Test [2] has as its target T2, rat DR6 (rat, UniProt D3ZF92 42-655).
T2 construct: Full length rat DR6 expressed on transfected HEK293 cells
T2 sequence: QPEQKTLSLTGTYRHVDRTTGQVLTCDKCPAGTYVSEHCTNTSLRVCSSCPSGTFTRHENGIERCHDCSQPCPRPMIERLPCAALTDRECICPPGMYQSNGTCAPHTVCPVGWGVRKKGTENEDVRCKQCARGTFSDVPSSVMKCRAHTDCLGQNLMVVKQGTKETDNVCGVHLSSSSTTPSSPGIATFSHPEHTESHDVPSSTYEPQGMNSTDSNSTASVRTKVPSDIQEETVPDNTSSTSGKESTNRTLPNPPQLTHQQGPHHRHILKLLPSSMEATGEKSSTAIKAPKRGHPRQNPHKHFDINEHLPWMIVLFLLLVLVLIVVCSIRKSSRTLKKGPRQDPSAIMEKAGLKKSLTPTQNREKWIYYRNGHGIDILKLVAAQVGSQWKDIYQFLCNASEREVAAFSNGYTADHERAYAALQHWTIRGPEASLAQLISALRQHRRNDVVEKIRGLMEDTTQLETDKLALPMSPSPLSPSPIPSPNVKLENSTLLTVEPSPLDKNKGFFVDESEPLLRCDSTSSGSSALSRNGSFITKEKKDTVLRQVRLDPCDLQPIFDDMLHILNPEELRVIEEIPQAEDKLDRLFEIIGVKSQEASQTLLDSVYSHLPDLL
The description is as above. As to the method: as §1, §2

Test [3] addresses T3, mouse DR6 (mouse, UniProt Q9EPU5 42-655).
T3 sequence: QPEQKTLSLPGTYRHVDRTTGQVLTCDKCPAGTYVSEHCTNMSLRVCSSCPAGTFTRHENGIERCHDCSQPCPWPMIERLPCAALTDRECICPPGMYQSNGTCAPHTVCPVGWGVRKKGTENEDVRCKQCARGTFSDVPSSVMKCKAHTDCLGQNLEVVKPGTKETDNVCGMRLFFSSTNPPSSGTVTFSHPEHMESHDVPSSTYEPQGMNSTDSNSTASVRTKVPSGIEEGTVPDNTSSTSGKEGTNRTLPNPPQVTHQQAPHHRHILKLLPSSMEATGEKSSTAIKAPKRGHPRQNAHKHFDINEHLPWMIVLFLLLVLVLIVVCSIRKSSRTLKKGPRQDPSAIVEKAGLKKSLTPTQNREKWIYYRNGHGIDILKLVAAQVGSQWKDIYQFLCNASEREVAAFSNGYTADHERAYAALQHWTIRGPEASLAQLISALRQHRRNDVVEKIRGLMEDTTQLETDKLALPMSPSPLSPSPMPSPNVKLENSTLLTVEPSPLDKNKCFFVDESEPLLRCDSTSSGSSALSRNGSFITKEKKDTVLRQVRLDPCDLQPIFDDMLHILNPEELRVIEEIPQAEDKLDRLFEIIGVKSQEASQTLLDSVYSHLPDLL
As to the kind of experiment: flow cytometry on HEK293 cells transfected with full length DR6. As to the method: Six million HEK293 cells were transfected with 10 ug of plasmid DNA, which encoded full length human, rat, or mouse DR6. Three days after transfection, approximately 50,000 cells in 200 μL of PBS, 1% BSA, 0.1% NaN3 (FACS buffer) were analyzed. Cells were pelleted and resuspended in 150 μL of serial dilutions of anti-DR6 antibodies in FACS buffer. Samples were incubated for 1 hour on ice with occasional agitation and then washed three times. Bound DR6 antibody was visualized with PE-labeled goat F(ab)₂ anti-human Fab (for Dyax Fabs) or anti-mouse IgG specific antibody (for monoclonal antibodies) (Jackson Labs). […] Although both antibodies bind to DR6, the EO4 antibody leads to cell death, whereas 5D10 promotes cell survival. FIG. 5B.
(In general: In flow cytometry, cells or beads pass a laser one at a time.)

Test [4] addresses T1, human DR6 (Death Receptor-6, TNFRSF21). Kind of test: cell-based or functional assay.
Test [5] concerns the target T2, rat DR6. As to the kind of experiment: binding to rat DR6 (FIG. 6).

B1: M53-E04 (Fab, V domains shown)
VH: EVQLLESGGGLVQPGGSLRLSCAASGFTFSNYEMSWVRQAPGKGLEWVSSIYSSGGETLYADSVKGRFTISRDNSKNTLYLQMNSLRAEDTAVYYCARDGAADYWGQGTLVTVSS
VL: QSELTQPPSASGTPGQWVTISCSGSTSNIGNNYVYWYQQLPGTAPKLLIYTNNQRPSGVPDRFSGSKSGTSASLAISGLRSEDEADYYCATWDDSLYAPVFGGGTKVTVL
notes: The format in the assay (Fab or full IgG) is therefore not certain; also called EO4 antibody; E04 mAb
As to B1, the EC50 (commonly the midpoint of the concentration-response curve) in test [1] worked out at 0.05 nM; in test [2], 0.1 nM. Also, in test [3], the binding result is on record as “binds”.

B2: 1P5D10.2 (antibody, V domains shown)
VH: EVQLVESGGGLVKPGGSLKLSCAASGFTFSDYYMYWVRQTPEKRLEWVATISDGGLYTYYQDSVKGRFTISRDNAKNNLYLQMSSLKSEDTAMYYCAREDDYDGDFYTMDYWGQGTSVTVSS
VL: QIVLTQSPAIMSASPGEKVTITCSASSSVSYMHWFQQKPGTSPKLWIYSTSNLASGVPARFSGSGSGTSYSLTISRMEAEDAATYYCQQRSSYPLTFGAGTKLELK
notes: Murine monoclonal antibody from a hybridoma; also called DR6 antagonist monoclonal antibody 5D10; anti-DR6 antibody 5D10
Consider B2, for which the “motor neuron survival following sodium arsenite treatment (cell number)” value in test [4] was found to be 3 fold. For the same molecule, the EC50 in test [1] worked out at 0.1 nM; in test [2], 60 nM. In test [3], the binding result is “binds”.

B3: 1P5D10.2(Y93A) (antibody, V domains shown)
VH: EVQLVESGGGLVKPGGSLKLSCAASGFTFSDYYMYWVRQTPEKRLEWVATISDGGLYTYYQDSVKGRFTISRDNAKNNLYLQMSSLKSEDTAMYYCAREDDYDGDFYTMDYWGQGTSVTVSS
VL: QIVLTQSPAIMSASPGEKVTITCSASSSVSYMHWFQQKPGTSPKLWIYSTSNLASGVPARFSGSGSGTSYSLTISRMEAEDAATYYCQQRSSAPLTFGAGTKLELK
notes: Single point mutant (Y93A, light chain variable domain) of 5D10; also called 5D10Y93A
With B3, the binding result in test [5] is “binds”.
